By Kd is commonly meant the free concentration of one partner at which half of the binding sites on the other are occupied at equilibrium, for simple one-to-one binding. Low values mean tighter binding, high ones weaker binding.

This note sets out measurements from patent publication US20080015137A1 (University of Texas, published 2008).

No end group written: not given here.

The target of experiment [1] is T1, Karyopherin beta2 (Kapβ2), full length, wild type (human, UniProt Q92973-2 1-890).
T1 construct: mature; Expressed as a GST fusion from pGEX-Tev and purified; Also used here for the Kapβ2 added in the GST pull-downs; also called Transportin
T1 sequence (looked up): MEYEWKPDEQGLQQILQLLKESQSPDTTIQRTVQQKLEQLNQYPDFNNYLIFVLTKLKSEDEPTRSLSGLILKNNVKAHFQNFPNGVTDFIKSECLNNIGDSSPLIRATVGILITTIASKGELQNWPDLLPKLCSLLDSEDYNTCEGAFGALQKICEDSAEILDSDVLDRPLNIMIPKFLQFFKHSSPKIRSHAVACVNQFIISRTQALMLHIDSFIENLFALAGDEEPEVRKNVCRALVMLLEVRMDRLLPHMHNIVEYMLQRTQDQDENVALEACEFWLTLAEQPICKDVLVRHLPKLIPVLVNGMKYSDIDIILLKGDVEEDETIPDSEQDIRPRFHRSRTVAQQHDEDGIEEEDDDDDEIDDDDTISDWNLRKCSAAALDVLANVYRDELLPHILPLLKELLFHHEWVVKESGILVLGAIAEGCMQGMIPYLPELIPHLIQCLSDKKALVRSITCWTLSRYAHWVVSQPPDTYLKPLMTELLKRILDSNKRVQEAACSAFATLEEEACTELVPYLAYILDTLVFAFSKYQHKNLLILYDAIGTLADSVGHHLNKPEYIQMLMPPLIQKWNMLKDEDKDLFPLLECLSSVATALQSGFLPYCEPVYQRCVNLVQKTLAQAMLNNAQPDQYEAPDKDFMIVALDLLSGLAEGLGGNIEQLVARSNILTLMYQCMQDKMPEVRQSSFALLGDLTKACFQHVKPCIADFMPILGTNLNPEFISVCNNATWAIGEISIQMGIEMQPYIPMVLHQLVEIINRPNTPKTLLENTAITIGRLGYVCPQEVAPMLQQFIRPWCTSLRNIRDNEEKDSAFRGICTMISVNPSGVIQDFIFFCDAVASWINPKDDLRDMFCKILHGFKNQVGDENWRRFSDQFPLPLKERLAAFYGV
The experiment can be described thus: competition ITC (107 pM versus 20 nM for hnRNP A1-NLS).

Experiment [2] deals with T1, Karyopherin beta2 (Kapβ2), full length, …. The experiment can be described thus: competition ITC; repeat with 20 µM MBP-hnRNP A1-NLS R284A/P288A/Y289A as displacement ligand.
The target is the same in experiment [3]. The experiment can be described thus: competition ITC; 108 µM MBP-M9M titrated into 12 µM Kapβ2 with 18 µM MBP-hnRNP A1-NLS R284A/P288A/Y289A as displacement ligand.
Experiment [4] has the same target. The experiment is described as follows: ITC; MBP-M9NLS(257-305) titrated into full length Kapβ2. (ITC needs no label: the signal is the heat of the interaction.)
Method: Substrate residues that make two or more sidechain contacts with Kapβ2 (F273, F281, R284, P288 and Y289) were systematically mutated to alanines.
The ITC studies used a MicroCal Omega VP-ITC calorimeter (MicroCal Inc., Northampton, Mass.). Proteins were dialyzed against buffer containing 20 mM Tris pH 7.5, 100 mM NaCl and 2 mM P-mercaptoethanol. […] Most ITC studies were done at 20° C. with 35 rounds of about 8 μl injections. […] Data was plotted and analyzed using MicroCal Origin software version 7.0, with a single binding site model.
For experiment [5] the target is unchanged. The experiment can be described thus: competition ITC (control); 154 µM MBP-hnRNP A1-NLS titrated into 12 µM Kapβ2 with MBP-hnRNP A1-NLS R284A/P288A/Y289A as displacement ligand.
Experiment [6] has the same target. The experiment can be described thus: ITC; MBP-hnRNP M(41-70) titrated into full-length Kapβ2. The protocol:
(§1) Quantitation of binding affinity with Isothermal Titration Calorimetry. Binding affinities for wild type and mutant MBP-hnRNP M-NLS were determined using Isothermal titration calorimetry (ITC). The experiments were performed using a MicroCal Omega VP-ITC calorimeter (MicroCal Inc., Northampton, Mass.). MBP-NLS proteins were dialyzed against buffer containing 20 mM Tris pH 7.5, 100 mM NaCl and 2 mM β-mercaptoethanol. […] All ITC experiments were done at 20° C. with 35 rounds of 8 μl injections. Data were plotted and analyzed using the single binding site model of MicroCal Origin software version 7.0.

For experiment [7] the target is unchanged. The experiment is described as follows: ITC; MBP-hnRNP M(41-70) mutant titrated into full-length Kapβ2. On the procedure: as §1
For experiment [8] the target is unchanged. The experiment is described as follows: ITC; MBP-hnRNP M(41-70) mutant titrated into full-length Kapβ2; unit cell prints only n. The protocol: as §1

As to GPGYSGGSRGYGSGGQGYGNQGSGYGGSFEPYANPTKR (designed binder) [MBP-M9M], the “fold tighter binding against natural NLS (hnRNP A1-NLS)” value in experiment [1] was 200 fold. Further, the Kd in experiment [2] was 0.111 nM; in experiment [3], 0.107 nM.

B1: MBP-M9NLS(257-305) wild type (other, human, UniProt P09651-2 257-305, looked up, not shown: large carriers)
chain: GGSYNDFGNYNNQSSNFGPMKGGNFGGRSSGPYGGGGQYFAKPRNQGGY
notes: MBP fusion of the NLS peptide; also called MBP-hnRNP A1-NLS; wildtype hnRNP A1-NLS
B1: the Kd in experiment [4] was determined as 42 nM; in experiment [5], 20 nM.

B2: MBP-hnRNP M(41-70) wild type (other, human, UniProt P52272 41-70, looked up, not shown: large carriers)
chain: ERPAQNEKRKEKNIKRGGNRFEPYANPTKR
modifications: also: MBP fusion partner, not in chain
notes: range 41-70; also called MBP-hnRNP M-NLS; hnRNP M-NLS
In experiment [6], B2 yielded a Kd of 10 nM. This lies in the double-digit nanomolar range.

Turning to ERPAQNEKRKEKNIARGGNRFEPYANPTKR (other, not shown: large carriers; small tags and cut ends, also: MBP fusion partner, not in chain) [MBP-hnRNP M(41-70) K55A], the Kd in experiment [7] is 7.6 nM.

ERPAQNEKRKEKNAKRGGNRFEPYANPTKR (other, not shown: large carriers; small tags and cut ends, also: MBP fusion partner, not in chain) [MBP-hnRNP M(41-70) I54A] showed a Kd in experiment [7] of 8.8 nM.

B3: MBP-hnRNP M(41-70) K50A/E51A/K52A/N53A/I54A/K55A/R56A (other, not shown: large carriers; small tags and cut ends)
chain: ERPAQNEKRAAAAAAAGGNRFEPYANPTKR
modifications: also: MBP fusion partner, not in chain
notes: also called all seven residues of 50KEKNIKR56 mutated to alanines
Consider B3, for which the Kd in experiment [7] came out at 1200 nM.

Molecule ERPAQNEKRAEKNIKRGGNRFEPYANPTKR (other, not shown: large carriers; small tags and cut ends, also: MBP fusion partner, not in chain) [MBP-hnRNP M(41-70) K50A] displayed a Kd in experiment [7] of 16.4 nM.

B4: MBP-hnRNP M(41-70) K50A/E51A/K52A/N53A (other, not shown: large carriers; small tags and cut ends)
chain: ERPAQNEKRAAAAIKRGGNRFEPYANPTKR
modifications: also: MBP fusion partner, not in chain
notes: also called quadruple 50KEKN53/AAAA hnRNP M mutant
In experiment [7], B4 had a dissociation constant (Kd) of 22.3 nM.

With ERPAQNEKRKEANIKRGGNRFEPYANPTKR (other, not shown: large carriers; small tags and cut ends, also: MBP fusion partner, not in chain) [MBP-hnRNP M(41-70) K52A], in experiment [7], binding was characterised by a dissociation constant (Kd) of 14.6 nM.

In experiment [7], ERPAQNEKRKEKNIKAGGNRFEPYANPTKR (other, not shown: large carriers; small tags and cut ends, also: MBP fusion partner, not in chain) [MBP-hnRNP M(41-70) R56A] gave a Kd of 13.9 nM.

In experiment [7], ERPAQNEKRKEKNIKRGGNRFEAAANPTKR (other, not shown: large carriers; small tags and cut ends, also: MBP fusion partner, not in chain) [MBP-hnRNP M(41-70) P63A/Y64A] displayed a Kd of 4500 nM.

The molecule ERPAQNEKRKEKAIKRGGNRFEPYANPTKR (other, not shown: large carriers; small tags and cut ends, also: MBP fusion partner, not in chain) [MBP-hnRNP M(41-70) N53A] returned a Kd in experiment [7] of 17.1 nM.

For the molecule ERPAQNEKRKEKNIKRGGNRAEPYANPTKR (other, not shown: large carriers; small tags and cut ends, also: MBP fusion partner, not in chain) [MBP-hnRNP M(41-70) F61A], binding in experiment [7] was put at a Kd of 11.2 nM.

For ERPAQNEKRKEKNIKRGGNRAEAAANPTKR (other, not shown: large carriers; small tags and cut ends, also: MBP fusion partner, not in chain) [MBP-hnRNP M(41-70) F61A/P63A/Y64A], in experiment [7], the Kd is 8600 nM.

Consider ERPAQNEKRKEKNIKRGGNRFEPYANATKR (other, not shown: large carriers; small tags and cut ends, also: MBP fusion partner, not in chain) [MBP-hnRNP M(41-70) P67A], for which the Kd in experiment [8] was found to be 8.7 nM.
